B1: C0033 (Variable domains of anti-oxMIF and anti-CD3 fused in a row (VL1-VH2-VL2-VH1, TandAb)) (bispecific antibody)
chain: DIQMTQSPSSLSASVGDRVTITCSASSSVSYMNWYQQKPGKAPKRLIYDTSKLASGVPSRFSGSGSGTDFTLTISSLQPEDFATYYCQQWSSNPFTFGQGTKLEIKGGSGGSEVQLLESGGGLVQPGGSLRLSCAASGFTFSIYSMNWVRQAPGKGLEWVSSIGSSGGTTYYADSVKGRFTISRDNSKNTLYLQMNSLRAEDTAVYYCAGSQWLYGMDVWGQGTTVTVSSGGSGGSDIQMTQSPSSLSASVGDRVTITCRSSQRIMTYLNWYQQKPGKAPKLLIFVASHSQSGVPSRFRGSGSETDFTLTISGLQPEDSATYYCQQSFWTPLTFGGGTKVEIKGGSGGSQVQLVQSGAEVKKPGASVKVSCKASGYTFTRYTMHWVRQAPGQGLEWMGYINPSRGYTNYNQKFKDRVTLTTDKSSSTAYMELSSLRSEDTAVYYCARYYDDHYSLDYWGQGTLVTVSSAAAEQKLISEEDLSAWSHPQFEK
B2: C0039 (Full anti-oxMIF IgG with anti-CD3 scFv fused to light chain, IgG(lc)-scFv) (bispecific antibody)
heavy: not shown
light: DIQMTQSPSSLSASVGDRVTITCRSSQRIMTYLNWYQQKPGKAPKLLIFVASHSQSGVPSRFRGSGSETDFTLTISGLQPEDSATYYCQQSFWTPLTFGGGTKVEIKRTVAAPSVFIFPPSDEQLKSGTASVVCLLNNFYPREAKVQWKVDNALQSGNSQESVTEQDSKDSTYSLSSTLTLSKADYEKHKVYACEVTHQGLSSPVTKSFNRGECGGGGSGGGGSGGGGSQVQLVQSGAEVKKPGASVKVSCKASGYTFTRYTMHWVRQAPGQGLEWMGYINPSRGYTNYNQKFKDRVTLTTDKSSSTAYMELSSLRSEDTAVYYCARYYDDHYSLDYWGQGTLVTVSSGGSGGSGGSGGSGGSDIQMTQSPSSLSASVGDRVTITCSASSSVSYMNWYQQKPGKAPKRLIYDTSKLASGVPSRFSGSGSGTDFTLTISSLQPEDFATYYCQQWSSNPFTFGQGTKLEIK
notes: also called IgG(Ic)-scFv
B3: C0037 (Anti-oxMIF Fab fused to two anti-CD3 scFv, format: Fab-(scFv)2) (bispecific antibody)
heavy: EVQLLESGGGLVQPGGSLRLSCAASGFTFSIYSMNWVRQAPGKGLEWVSSIGSSGGTTYYADSVKGRFTISRDNSKNTLYLQMNSLRAEDTAVYYCAGSQWLYGMDVWGQGTTVTVSSASTKGPSVFPLAPSSKSTSGGTAALGCLVKDYFPEPVTVSWNSGALTSGVHTFPAVLQSSGLYSLSSVVTVPSSSLGTQTYICNVNHKPSNTKVDKRVEPKSCGGGGSGGGGSGGGGSQVQLVQSGAEVKKPGASVKVSCKASGYTFTRYTMHWVRQAPGQGLEWMGYINPSRGYTNYNQKFKDRVTLTTDKSSSTAYMELSSLRSEDTAVYYCARYYDDHYSLDYWGQGTLVTVSSGGSGGSGGSGGSGGSDIQMTQSPSSLSASVGDRVTITCSASSSVSYMNWYQQKPGKAPKRLIYDTSKLASGVPSRFSGSGSGTDFTLTISSLQPEDFATYYCQQWSSNPFTFGQGTKLEIKAAAEQKLISEEDLAAHHHHHH
light: DIQMTQSPSSLSASVGDRVTITCRSSQRIMTYLNWYQQKPGKAPKLLIFVASHSQSGVPSRFRGSGSETDFTLTISGLQPEDSATYYCQQSFWTPLTFGGGTKVEIKRTVAAPSVFIFPPSDEQLKSGTASVVCLLNNFYPREAKVQWKVDNALQSGNSQESVTEQDSKDSTYSLSSTLTLSKADYEKHKVYACEVTHQGLSSPVTKSFNRGECGGGSGGGSGGGSQVQLVQSGAEVKKPGASVKVSCKASGYTFTRYTMHWVRQAPGQGLEWMGYINPSRGYTNYNQKFKDRVTLTTDKSSSTAYMELSSLRSEDTAVYYCARYYDDHYSLDYWGQGTLVTVSSGGSGGSGGSGGSGGSDIQMTQSPSSLSASVGDRVTITCSASSSVSYMNWYQQKPGKAPKRLIYDTSKLASGVPSRFSGSGSGTDFTLTISSLQPEDFATYYCQQWSSNPFTFGQGTKLEIKASAWSHPQFEK
B4: C0032 (Anti-oxMIF-scFv fused to an anti-CD3-scFv, BiTE) (bispecific antibody)
chain: DIQMTQSPSSLSASVGDRVTITCRSSQRIMTYLNWYQQKPGKAPKLLIFVASHSQSGVPSRFRGSGSETDFTLTISGLQPEDSATYYCQQSFWTPLTFGGGTKVEIKGGGGSGGGGSGGGGSEVQLLESGGGLVQPGGSLRLSCAASGFTFSIYSMNWVRQAPGKGLEWVSSIGSSGGTTYYADSVKGRFTISRDNSKNTLYLQMNSLRAEDTAVYYCAGSQWLYGMDVWGQGTTVTVSSGGGGSQVQLVQSGAEVKKPGASVKVSCKASGYTFTRYTMHWVRQAPGQGLEWMGYINPSRGYTNYNQKFKDRVTLTTDKSSSTAYMELSSLRSEDTAVYYCARYYDDHYSLDYWGQGTLVTVSSGGSGGSGGSGGSGGSDIQMTQSPSSLSASVGDRVTITCSASSSVSYMNWYQQKPGKAPKRLIYDTSKLASGVPSRFSGSGSGTDFTLTISSLQPEDFATYYCQQWSSNPFTFGQGTKLEIKAAAEQKLISEEDLSAWSHPQFEK
notes: also called anti-oxMIF/CD3 BiTE
B5: C0006 (Anti-oxMIF/CD3 Crossmab (CH1-CL), Crossmab) (bispecific antibody, human IgG1, kappa)
light 1: DIQMTQSPSSLSASVGDRVTITCRSSQRIMTYLNWYQQKPGKAPKLLIFVASHSQSGVPSRFRGSGSETDFTLTISGLQPEDSATYYCQQSFWTPLTFGGGTKVEIKRTVAAPSVFIFPPSDEQLKSGTASVVCLLNNFYPREAKVQWKVDNALQSGNSQESVTEQDSKDSTYSLSSTLTLSKADYEKHKVYACEVTHQGLSSPVTKSFNRGEC
heavy 1: not shown
heavy 2: not shown
light 2: DIQMTQSPSSLSASVGDRVTITCSASSSVSYMNWYQQKPGKAPKRLIYDTSKLASGVPSRFSGSGSGTDFTLTISSLQPEDFATYYCQQWSSNPFTFGQGTKLEIKSSASTKGPSVFPLAPSSKSTSGGTAALGCLVKDYFPEPVTVSWNSGALTSGVHTFPAVLQSSGLYSLSSVVTVPSSSLGTQTYICNVNHKPSNTKVDKKVEPKSC
B6: C0036 (Anti-oxMIF Fab fused to anti-CD3 scFv (HC); format: Fab-scFv) (bispecific antibody)
heavy: B3 heavy
light: B5 light 1
B7: C0007 (Full anti-oxMIF IgG with anti-CD3 scFv fused to heavy chain, v IgG1-scFv fusion) (bispecific antibody)
heavy: not shown
light: B5 light 1
B8: C0038 (Anti-oxMIF Fab and anti-CD3 scFv fused to Fc, Fab-scFv-Fc) (bispecific antibody, human IgG1, kappa)
light: B5 light 1
heavy: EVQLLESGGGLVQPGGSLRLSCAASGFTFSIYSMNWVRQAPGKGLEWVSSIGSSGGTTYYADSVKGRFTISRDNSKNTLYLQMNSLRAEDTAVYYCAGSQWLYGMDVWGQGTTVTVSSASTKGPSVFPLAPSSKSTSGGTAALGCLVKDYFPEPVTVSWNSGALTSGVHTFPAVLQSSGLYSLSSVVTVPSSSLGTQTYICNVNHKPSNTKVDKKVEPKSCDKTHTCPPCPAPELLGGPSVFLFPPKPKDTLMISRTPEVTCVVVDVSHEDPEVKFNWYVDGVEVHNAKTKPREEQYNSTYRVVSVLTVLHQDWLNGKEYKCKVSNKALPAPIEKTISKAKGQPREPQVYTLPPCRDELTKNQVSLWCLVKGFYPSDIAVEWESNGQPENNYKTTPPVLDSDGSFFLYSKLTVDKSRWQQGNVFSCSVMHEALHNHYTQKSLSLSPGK
chain: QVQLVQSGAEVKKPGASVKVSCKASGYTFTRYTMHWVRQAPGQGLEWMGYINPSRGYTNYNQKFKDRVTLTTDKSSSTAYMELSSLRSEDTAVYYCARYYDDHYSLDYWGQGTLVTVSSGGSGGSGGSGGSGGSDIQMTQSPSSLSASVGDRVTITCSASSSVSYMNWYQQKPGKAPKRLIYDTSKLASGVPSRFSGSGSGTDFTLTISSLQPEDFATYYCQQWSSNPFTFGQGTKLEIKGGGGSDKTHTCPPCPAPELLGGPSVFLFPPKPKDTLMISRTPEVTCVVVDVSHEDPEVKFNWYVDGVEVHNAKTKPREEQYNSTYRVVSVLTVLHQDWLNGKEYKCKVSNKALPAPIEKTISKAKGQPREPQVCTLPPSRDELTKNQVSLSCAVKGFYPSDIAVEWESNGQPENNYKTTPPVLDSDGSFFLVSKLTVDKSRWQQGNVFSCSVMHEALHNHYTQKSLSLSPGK
B9: C0008 (full anti-oxMIF IgG, IgG1) (antibody, V domains shown)
VH: EVQLLESGGGLVQPGGSLRLSCAASGFTFSIYSMNWVRQAPGKGLEWVSSIGSSGGTTYYADSVKGRFTISRDNSKNTLYLQMNSLRAEDTAVYYCAGSQWLYGMDVWGQGTTVTVSS
VL: DIQMTQSPSSLSASVGDRVTITCRSSQRIMTYLNWYQQKPGKAPKLLIFVASHSQSGVPSRFRGSGSETDFTLTISGLQPEDSATYYCQQSFWTPLTFGGGTKVEIKR
notes: Monospecific control antibody; also called anti-oxMIF monospecific control antibody

These binders were tested against T1, Recombinant human MIF, immobilized (transforming MIF to oxMIF) (human, UniProt P14174 2-115) (assay: SPR, Biacore T200, HuMIF immobilized on CM5 chip, single cycle kinetics, 1:1 Langmuir model).
T1 construct: also called immobilized MIF (oxMIF); HuMIF
T1 sequence (P14174 2-115 limits assumed): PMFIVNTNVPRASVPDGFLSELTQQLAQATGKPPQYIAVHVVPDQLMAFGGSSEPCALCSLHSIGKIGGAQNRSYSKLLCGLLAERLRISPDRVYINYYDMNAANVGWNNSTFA
Description: The affinity of the antibodies was determined using a Biacore™ T200 device. HuMIF was immobilized onto CM5 sensor chips and anti-oxMIF bispecific entities were injected at different concentrations in running buffer (HBS-EP plus 0.1% BSA) to generate single cycle kinetic profiles.
B1 showed a Kd of 4.8 nM.
With B2 the Kd was 1 nM.
Binder B3 has a Kd of 5.9 nM.
B4 gave a Kd of 4.3 nM.
B5 was tested, and the Kd was 7.2 nM.
Work on B6 yielded a Kd of 2.3 nM.
B7 was tested, and the Kd was 0.61 nM.
B8 gave a Kd of 9.4 nM.

These binders were tested against T1, Recombinant human MIF, immobilized … (assay: ELISA, immobilized recombinant human MIF (oxMIF), protein L-HRP detection, 4-parameter fit).
Description: Recombinant human MIF (1 μg/ml) diluted in PBS was immobilized into microwell plates (transforming MIF to oxMIF according to Thiele M. et al., 2015, J Immunol 2015; 195:2343-2352). After blocking, the bispecific antibodies were added to the plates at different concentrations. Bound bispecific antibodies were detected using protein L-HRP conjugate. Plates were developed by adding TMB and chromogenic reaction was stopped with H₂SO₄. OD was measured at 450 nm.
EC50 values of the binding curves, which reflect rough KD estimates, were calculated by 4-parameter fit and are shown in Table 5.
B1 was tested, and the EC50 was 1.9 nM.
Work on B2 yielded an EC50 of 0.3 nM.
B3 showed an EC50 of 3.4 nM.
B4 gave an EC50 of 4 nM.
For B5, the EC50 was 4.6 nM.
In the case of B6, the EC50 is reported as 2.3 nM.
Binder B7 has an EC50 of 0.3 nM.
B8 gave an EC50 of 4.6 nM.

Each binder was assayed against T2, native CD3 on CD3-positive Jurkat T cells (UniProt P07766 23-207; P04234 22-171; P09693 23-182) (assay: flow cytometry on viable CD3+ Jurkat T cells, antibody at 70 nM, goat anti-human IgG (H+L) Alexa Fluor 488).
T2 construct: whole, on cells; also called functional CD3 (CD3+)
T2 sequence (P07766 23-207, chain 1 of 3): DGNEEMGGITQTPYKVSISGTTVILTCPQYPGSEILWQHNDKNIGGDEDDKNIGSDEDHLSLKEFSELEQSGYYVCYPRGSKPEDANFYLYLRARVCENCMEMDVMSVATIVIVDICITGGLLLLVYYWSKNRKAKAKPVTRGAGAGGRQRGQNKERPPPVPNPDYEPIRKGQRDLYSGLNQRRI
T2 sequence (P04234 22-171, chain 2 of 3): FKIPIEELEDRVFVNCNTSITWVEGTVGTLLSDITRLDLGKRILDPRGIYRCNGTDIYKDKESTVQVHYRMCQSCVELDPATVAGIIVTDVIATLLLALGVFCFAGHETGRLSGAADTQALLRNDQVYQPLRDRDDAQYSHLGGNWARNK
T2 sequence (P09693 23-182, chain 3 of 3): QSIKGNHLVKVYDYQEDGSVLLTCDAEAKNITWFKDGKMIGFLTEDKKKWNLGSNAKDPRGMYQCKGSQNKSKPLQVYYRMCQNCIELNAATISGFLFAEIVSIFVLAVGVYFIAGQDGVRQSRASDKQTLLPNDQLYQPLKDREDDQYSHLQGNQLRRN
Description: CD3 positive Jurkat T-cells, which express functional CD3 (CD3+) were incubated with bispecific antibodies, C0008 (anti-oxMIF monospecific control antibody), a non-specific isotype control antibody (Isotype) at a concentration of 70 nM or without antibody (secondary ab only). Bound antibodies were detected by a goat anti-human IgG (H+L) Alexa-Fluor 488 conjugate (secondary antibody). 7AAD was used to label dead cells and samples were analysed by FACS.
B9: no binding (tested: 70 nM).
B2: binds.
B4: binds.
B5: binds.
B7: binds.
